Kd data for 1 substance are collected here from patent US9789176.

The target of the assay is CD40 (from R&D systems) (UniProt P25942).
Chain of UniProt P25942 (P25942 21-193 limits assumed): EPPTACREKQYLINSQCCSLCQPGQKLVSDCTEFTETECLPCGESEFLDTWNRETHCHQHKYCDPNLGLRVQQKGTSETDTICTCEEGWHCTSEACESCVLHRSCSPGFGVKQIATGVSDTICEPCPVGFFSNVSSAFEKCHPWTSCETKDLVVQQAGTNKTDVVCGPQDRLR

As usually defined, the Kd is the equilibrium constant for the complex coming apart. Read a high Kd as a looser complex. “toxic shock syndrome toxin-1 (TSST-1), native / wild-type (from UniProt P06886 41-234) (other; other documents disagree on this pair)” yielded a dissociation constant Kd of 2700 nM.
